Measurements as given in US20040018515A1, “Compositions selective for adenosine diphosphate and methods of using same” (priority 2002, published 2004).

Experiments:
[1] = SPA KD determination for ADP aptamer F01, ATP; type: binding
Experimental: (§1) The specificity of the ADP aptamer clone F01 was characterized using a variety of nucleoside analogues and mimetics as shown in FIG. 30. NEN flashplates used in the ADP assay were prepared as described above using 150 pmol ADP clone F01 ( in 20 μl 1×PBS incubated in designated wells with shaking at 650 RPM for 30 min). Excess F01 aptamer was removed by washing with 1×PBS 3-times and blotting as before. Treated wells were incubated with 30 μl of 1 μM ^3H-ADP in 1× Selection Buffer for 30 s with shaking at 650 RPM and then assessed for ADP-mediated signal by quantification on a TopCount, ^3H SPA scintillation counter. Thereafter, 1 μl of each test compound was added to the appropriate wells and the plate shaken at 650 RPM for 30 s prior to recounting on TopCount, ^3H SPA scintillation counter. Titration of each test compound was continued with subsequent 1 μl additions up to 10 mM final concentration. The dissociation constant KD was estimated from the IC50 of the competitive binding curve.
This impurity confounds precise determination of ADP aptamer selectivity by SPA competition.

[2] = SPA KD determination for ADP aptamer F01, nucleoside analogs and mimetics; type: binding; details: SPA competition; KD estimated from IC50; FIG. 30
Experimental: as §1

[3] = SPA competitive binding of ADP aptamer clones (cold ADP vs other adenosine nucleoside derivatives); details: competitive binding analysis; FIG. 29
Experimental: NEN flashplates used in the ADP SPA screen and competition binding studies were prepared by incubating the individual wells with 40 pmol of MK08.112A biotinylated capture probe in 22 μl of PBS Buffer: BupH (0.05% tRNA, 0.025% Tween 20) with and shaking at 650 RPM, 15 min. Excess capture probe was removed from the wells by washing with 1×PBS 3 times and inverting plate with force to remove liquid and blotting them dry on paper towels. Crude transcription of RNA transcribed with capture probe sequence (5 μl) in 25 μl 1×PBS was incubated in designated wells with shaking at 650 RPM for 30 min. Excess aptamer was removed by washing with 1×PBS 3 times and blotting as before. Treated wells were incubated with 30 μl of 1 μM ^3H-ADP in 1× Selection Buffer for 30 s with shaking at 650 RPM and then assessed for ADP-mediated signal by quantification on a TopCount, ^3H SPA scintillation counter.
The best ADP binders, e.g., clones 1, 2, 11, 12, 14, and 16 were subsequently tested for ADP/ATP discrimination by competition with either cold ADP or ATP (FIG. 28). Clones such as F01 (clone #11), whose SPA signal was competed off with the lowest concentration of ADP, i.e., the best ADP binder, and correspondingly the highest concentration of ATP, i.e., the worst ATP binder, were considered to be ADP selective.

[4] = ADP SPA screening of ADP aptamer clones; type: binding; details: 1 μM 3H-ADP; vs. clone R0; FIG. 27
Experimental: Mini-prepped plasmid DNA and corresponding sequence (Table 4) were obtained from Lark Technologies. Any sequence that differed by more than two nucleotides from all other ADP aptamer clones was considered to be unique for the purposes of screening. “Unique” clones were PCR amplified from purified plasmid DNA using the original 5′-primer used in the selections (JD18.25B; SEQ ID NO: 17) and a new 3′-primer, 5′-[…]-3′ (JD18.122.A; 200 nM scale, 46-mer) Tm ˜58° C.; SEQ ID NO: 72). This primer adds a 3′-sequence tag to the transcribed RNA molecules which allows the aptamer clones to be immobilized onto the surface of an NEN streptavidin coated flash plate via base pairing with a biotinylated DNA capture oligo (MK08.112A; 5′-biotin-[…]-3′; SEQ ID NO: 73).
NEN flashplates used in the ADP SPA screen and competition binding studies were prepared by incubating the individual wells with 40 pmol of MK08.112A biotinylated capture probe in 22 μl of PBS Buffer: BupH (0.05% tRNA, 0.025% Tween 20) with and shaking at 650 RPM, 15 min. […] Treated wells were incubated with 30 μl of 1 μM ^3H-ADP in 1× Selection Buffer for 30 s with shaking at 650 RPM and then assessed for ADP-mediated signal by quantification on a TopCount, ^3H SPA scintillation counter.
Clones were initially assessed for the ability to yield ADP-mediated signal in the ADP SPA.

B1: GGACGGATCGCGTGATGACGAGGGGAATGAACACCCCGGACAATCAGACACGGTCATCTCACACACCTCCCTGA (nucleic acid)
chain: GGACGGATCGCGTGATGACGAGGGGAATGAACACCCCGGACAATCAGACACGGTCATCTCACACACCTCCCTGA
modifications: RNA, all phosphodiester, T or U not given here
KD for ATP relative to KD for ADP ([1]; SPA competition, KD estimated from IC50): at least 70 fold
selectivity for ADP over ATP relative to what preliminary studies indicated ([1]; after column purification of ATP): approximately 4 fold
KD values of other nucleoside derivatives and mimetics relative to KD for ADP [2]: more than 300 fold
selectivity for ADP compared to other adenosine nucleoside derivatives (AMP, ATP, cAMP) [3]: highly selective for ADP
ADP-mediated signal in the SPA screening assay above background signal [4]: more than 2.5 fold
